Assay results reported in patent US20240254246A1 (PROMETHEUS BIOSCIENCES, published 2024).
Read-outs that look alike come from different tables or passages of the source.

T1: human CD30L expressed on cells (human, UniProt P32971 1-234)
T1 sequence (looked up): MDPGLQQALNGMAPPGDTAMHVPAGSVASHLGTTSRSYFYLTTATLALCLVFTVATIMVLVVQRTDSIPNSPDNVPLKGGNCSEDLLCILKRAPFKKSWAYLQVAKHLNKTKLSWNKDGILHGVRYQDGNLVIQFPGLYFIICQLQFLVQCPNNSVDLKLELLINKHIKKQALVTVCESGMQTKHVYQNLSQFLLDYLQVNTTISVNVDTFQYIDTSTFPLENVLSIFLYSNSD

T2: cynomolgus CD30L expressed on HEK293 cells (cynomolgus, UniProt A0A7N9CVX7 1-234)
T2 sequence: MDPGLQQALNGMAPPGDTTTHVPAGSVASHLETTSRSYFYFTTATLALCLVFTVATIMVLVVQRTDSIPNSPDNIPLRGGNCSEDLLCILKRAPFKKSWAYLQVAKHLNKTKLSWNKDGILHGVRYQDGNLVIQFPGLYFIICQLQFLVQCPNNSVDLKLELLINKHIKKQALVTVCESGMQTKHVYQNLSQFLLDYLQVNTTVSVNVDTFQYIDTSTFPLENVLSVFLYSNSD

T3: recombinant human CD30L protein (human, UniProt P32971 63-234)
T3 construct: also called rhCD30L; huCD30L (ELISA)
T3 sequence (looked up): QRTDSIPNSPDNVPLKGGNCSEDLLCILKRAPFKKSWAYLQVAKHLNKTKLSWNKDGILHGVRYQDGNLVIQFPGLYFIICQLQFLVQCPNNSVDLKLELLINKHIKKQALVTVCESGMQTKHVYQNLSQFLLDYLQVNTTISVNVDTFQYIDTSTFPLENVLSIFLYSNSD

T4: cynomolgus CD30L expressed on cells (cynomolgus, UniProt A0A7N9CVX7 1-234)
T4 construct: whole, on cells; also called cyCD30L; HEK293-cyCD30L
T4 sequence: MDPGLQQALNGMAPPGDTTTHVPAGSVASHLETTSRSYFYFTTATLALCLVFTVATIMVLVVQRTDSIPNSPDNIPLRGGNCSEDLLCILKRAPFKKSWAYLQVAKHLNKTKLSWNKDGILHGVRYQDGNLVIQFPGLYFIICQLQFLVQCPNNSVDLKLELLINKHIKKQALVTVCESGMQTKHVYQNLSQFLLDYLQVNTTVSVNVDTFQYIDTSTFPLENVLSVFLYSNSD

T5: human CD30L expressed on cells (human, UniProt P32971 1-234)
T5 construct: also called huCD30L; B16-huCD30L
T5 sequence: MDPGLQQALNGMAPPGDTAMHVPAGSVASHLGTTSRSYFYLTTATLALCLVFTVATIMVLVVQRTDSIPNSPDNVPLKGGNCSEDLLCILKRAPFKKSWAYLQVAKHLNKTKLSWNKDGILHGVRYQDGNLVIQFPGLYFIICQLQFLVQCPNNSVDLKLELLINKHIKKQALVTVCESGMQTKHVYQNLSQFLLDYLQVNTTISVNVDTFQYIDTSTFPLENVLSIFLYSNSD

T6: recombinant cynomolgus CD30L protein (cynomolgus, UniProt A0A7N9CVX7 63-234)
T6 construct: Recombinant protein used in ELISA; also called cyCD30L
T6 sequence: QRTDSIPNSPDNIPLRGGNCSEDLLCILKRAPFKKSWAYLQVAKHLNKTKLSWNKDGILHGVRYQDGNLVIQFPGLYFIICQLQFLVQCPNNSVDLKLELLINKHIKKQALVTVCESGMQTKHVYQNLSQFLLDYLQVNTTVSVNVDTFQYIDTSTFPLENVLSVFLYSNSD

T7: recombinant human CD30L protein (human, UniProt P32971 63-234)
T7 construct: Recombinant protein used in ELISA; also called huCD30L
T7 sequence (looked up): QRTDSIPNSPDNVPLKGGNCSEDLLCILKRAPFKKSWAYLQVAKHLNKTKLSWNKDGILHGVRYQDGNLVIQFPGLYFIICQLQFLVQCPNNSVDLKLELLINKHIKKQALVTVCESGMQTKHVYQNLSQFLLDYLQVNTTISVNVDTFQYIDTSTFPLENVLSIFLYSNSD

T8: human CD30L expressed on B16 cells (human, UniProt P32971 1-234)
T8 sequence (looked up): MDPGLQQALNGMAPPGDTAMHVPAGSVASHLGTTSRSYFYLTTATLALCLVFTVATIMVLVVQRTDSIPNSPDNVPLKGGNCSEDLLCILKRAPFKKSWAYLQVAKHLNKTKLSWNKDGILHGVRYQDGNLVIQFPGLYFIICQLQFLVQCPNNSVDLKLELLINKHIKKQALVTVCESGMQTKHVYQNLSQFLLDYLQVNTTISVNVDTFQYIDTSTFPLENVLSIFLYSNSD

T9: cynomolgus CD30L expressed on HEK293 cells (cynomolgus, UniProt A0A7N9CVX7 1-234)
T9 sequence: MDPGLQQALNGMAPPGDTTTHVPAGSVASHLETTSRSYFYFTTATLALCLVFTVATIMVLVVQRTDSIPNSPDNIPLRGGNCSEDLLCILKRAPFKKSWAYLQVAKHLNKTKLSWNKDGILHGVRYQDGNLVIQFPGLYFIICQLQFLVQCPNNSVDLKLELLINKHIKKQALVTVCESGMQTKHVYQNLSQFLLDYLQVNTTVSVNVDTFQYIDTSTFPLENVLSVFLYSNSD


Key:
[1] = target: T1, human CD30L expressed on cells; assay: cell-based or functional assay
[2] = target: T2, cynomolgus CD30L expressed on HEK293 …; assay: cell-based or functional assay
[3] = target: T1, human CD30L expressed on cells; assay: flow cytometry, B16-huCD30L cells
Protocol: Anti-CD30L antibody binding to a CD30L target was determined by flow cytometry, using B16 cells transfected to express human CD30L (compared to non-transfected B16), and using HEK293 cells transfected to express cynomolgus CD30L (compared to non-transfected HEK293). […] Cell surface bound antibodies were detected using a fluorescently labeled anti-human-IgG or anti-mouse IgG, depending on the Fc portion of the antibodies. After incubation with the secondary antibody, the cells were washed, fixed in a paraformaldehyde solution, and analyzed by flow cytometry to detect antibody binding.

[4] = target: T1, human CD30L expressed on cells; assay: flow cytometry, blocking of huCD30 binding to B16-huCD30L cells
[5] = target: T3, recombinant human CD30L protein; assay: ELISA, huCD30L, 1/50 dil
[6] = target: T3, recombinant human CD30L protein; assay: ELISA, huCD30L, 1/500 dil
[7] = target: T3, recombinant human CD30L protein; assay: ELISA, huCD30L, 1/5000 dil
[8] = target: T4, cynomolgus CD30L expressed on cells; assay: flow cytometry, cyCD30L cells, 1/50 dil
[9] = target: T5, human CD30L expressed on cells; assay: flow cytometry, huCD30L cells, 1/50 dil
[10] = target: T6, recombinant cynomolgus CD30L protein; assay: ELISA, 1/50 dil
[11] = target: T6, recombinant cynomolgus CD30L protein; assay: ELISA, 1/500 dil
[12] = target: T6, recombinant cynomolgus CD30L protein; assay: ELISA, 1/5000 dil
[13] = target: T7, recombinant human CD30L protein; assay: ELISA, CD30 competitor, undil
[14] = target: T7, recombinant human CD30L protein; assay: ELISA, CD30 competitor, 1/10 dil
[15] = target: T7, recombinant human CD30L protein; assay: ELISA, CD30 competitor, 1/100 dil
[16] = target: T7, recombinant human CD30L protein; assay: ELISA, CD30 competitor, 1/1000 dil
[17] = target: T8, human CD30L expressed on B16 cells; assay: cell-based or functional assay
[18] = target: T9, cynomolgus CD30L expressed on HEK293 …; assay: cell-based or functional assay; remark: listed apart in the source
[19] = target: T8, human CD30L expressed on B16 cells; assay: flow cytometry, binding to B16-rhCD30L cells
[20] = target: T9, cynomolgus CD30L expressed on HEK293 …; assay: flow cytometry, binding to HEK293-cyCD30L cells
[21] = target: T8, human CD30L expressed on B16 cells; assay: flow cytometry, blocking of CD30-Fc on B16-huCD30L cells; competitor CD30-Fc
[22] = target: T9, cynomolgus CD30L expressed on HEK293 …; assay: flow cytometry, blocking of CD30-Fc on HEK293-cyCD30L cells; competitor CD30-Fc

Binder	Inhibition of IL-8 release in a dual cell assay (B16-huCD30L cells + K299 cells) IC50 [1]	Inhibition of IL-8 release in a dual cell assay (HEK293-cyCD30L cells + K299 cells) IC50 [2]	EC50 [3]	IC50 [4]	OD [5]	OD [6]	OD [7]	MFI [8]	MFI [9]	also measured
Clone 1, Mouse IgG (antibody, V domains shown, Mouse IgG format) VH: QVQLQESGPGLVKPSETLSLTCTVSGGSISGYYWSWIRQPPVKGLEWIGYIFYSGYTKYNPSLKSRVTISVDTSKNQFSLKLSSVTAADTAVYYCARDRWDFDYWGQGALVTVSS VL: AIQMTQSPSYLSASVGDRVTIACRASQGIRNNLGWYQQKPGKAPKLLIYAESSLQSGVPSRFSGSGSGTDFTLTISSLQPEDFATYYCLQDFNYPYTFGQGTKLEIK	1.99 nM	0.55 nM	1.95 nM	3.06 nM						
anti-CD30L clone 3 (antibody, V domains shown) VH: QVQLQESGPGLVKPSETLSLTCTVSGGSISGYYWSWIRQPPVKGLEWIGYIFYSGYTKYNPSLKSRVTISVDTSKNQFSLKLSSVTAADTAVYYCARDRWDFDYWGQGALVTVSS VL: not shown					3.5 OD	2.54 OD	0.662 OD	72.4 MFI	153 MFI	
Clone 3 (antibody, V domains shown, Hybridoma screening sample; also called CLONE_3 (parental)) VH: QVQLQESGPGLVKPSETLSLTCTVSGGSISGYYWSWIRQPPVKGLEWIGYIFYSGYTKYNPSLKSRVTISVDTSKNQFSLKLSSVTAADTAVYYCARDRWDFDYWGQGALVTVSS VL: not shown										Elisa Binding (OD) [10]: 3.2 OD; Elisa Binding (OD) [11]: 2.35 OD; Elisa Binding (OD) [12]: 0.552 OD; % inhibition [13]: 98%; % inhibition [14]: 95%; % inhibition [15]: 17%; % inhibition [16]: 3%
anti-CD30L clone 1 (antibody, V domains shown, From mice with humanized immunoglobulin locus; elsewhere tested as mouse IgG and human IgG1; also called clone 1 parental) VH: QVQLQESGPGLVKPSETLSLTCTVSGGSISGYYWSWIRQPPVKGLEWIGYIFYSGYTKYNPSLKSRVTISVDTSKNQFSLKLSSVTAADTAVYYCARDRWDFDYWGQGALVTVSS VL: AIQMTQSPSYLSASVGDRVTIACRASQGIRNNLGWYQQKPGKAPKLLIYAESSLQSGVPSRFSGSGSGTDFTLTISSLQPEDFATYYCLQDFNYPYTFGQGTKLEIK					3.59 OD	3.02 OD	1.28 OD	77.3 MFI	208 MFI	
Clone 1, Human IgG1 (antibody, V domains shown, Human IgG1 format) VH: QVQLQESGPGLVKPSETLSLTCTVSGGSISGYYWSWIRQPPVKGLEWIGYIFYSGYTKYNPSLKSRVTISVDTSKNQFSLKLSSVTAADTAVYYCARDRWDFDYWGQGALVTVSS VL: AIQMTQSPSYLSASVGDRVTIACRASQGIRNNLGWYQQKPGKAPKLLIYAESSLQSGVPSRFSGSGSGTDFTLTISSLQPEDFATYYCLQDFNYPYTFGQGTKLEIK	1.1 nM	0.22 nM	1.41 nM	1.35 nM						
anti-CD30L clone 4 (antibody, V domains shown) VH: QVQLVESGGGVVQPGRSLRLSCAASGFPFSSYGMHWVRQAPGKGLEWVTFIWFDGNNKDYADSVKGRFSVSRDNSKNTLYLQMNSLRADDTAVYYCARNGVYYGSGAYVDYWGQGTLVTVSS VL: not shown					3.08 OD	2.65 OD	0.68 OD	67.8 MFI	151 MFI	
Clone 2, Mouse IgG (antibody, V domains shown, Mouse IgG format) VH: EVQLVESGGGLVQPGRSLRLSCAASGFNFDDYAMHWVRQAPGKGLEWVSGISWRSGNIGYAGSVKGRFTISRDNAKNSLYLQMNSLRPEDSALYYCAKDKGIGFNWNYEGFDYWGQGTLVTVSS VL: DIQMTQSPSSLSASVGDRVTITCRASQGISNHLAWFQQKPGKAPKSLIYAASSLQSGVPSKFSGSGSGTDFTLTISSLQPEDFATYYCQQYVTYPLTFGGGTKVEIK	1.2 nM	0.46 nM	1.21 nM	1.84 nM						
anti-CD30L clone 2 (antibody, V domains shown, From mice with humanized immunoglobulin locus; elsewhere tested as mouse IgG and human IgG1; also called clone 2 parental) VH: EVQLVESGGGLVQPGRSLRLSCAASGFNFDDYAMHWVRQAPGKGLEWVSGISWRSGNIGYAGSVKGRFTISRDNAKNSLYLQMNSLRPEDSALYYCAKDKGIGFNWNYEGFDYWGQGTLVTVSS VL: DIQMTQSPSSLSASVGDRVTITCRASQGISNHLAWFQQKPGKAPKSLIYAASSLQSGVPSKFSGSGSGTDFTLTISSLQPEDFATYYCQQYVTYPLTFGGGTKVEIK					2.15 OD	1.71 OD	0.565 OD	57.6 MFI	280 MFI	
Clone 2, Human IgG1 (antibody, V domains shown, Human IgG1 format) VH: EVQLVESGGGLVQPGRSLRLSCAASGFNFDDYAMHWVRQAPGKGLEWVSGISWRSGNIGYAGSVKGRFTISRDNAKNSLYLQMNSLRPEDSALYYCAKDKGIGFNWNYEGFDYWGQGTLVTVSS VL: DIQMTQSPSSLSASVGDRVTITCRASQGISNHLAWFQQKPGKAPKSLIYAASSLQSGVPSKFSGSGSGTDFTLTISSLQPEDFATYYCQQYVTYPLTFGGGTKVEIK	0.6 nM	0.24 nM	0.81 nM	0.86 nM						
anti-CD30L Reference 1 antibody (antibody, human IgG1, lambda, V domains shown) VH: QVQLQESGPGLVKPSETLSLTCTVSGGSISSYIWSWIRQPAGKGLEWIGRIYASGNTNYNPSLKSRVTISVDTSKNQFSLKLSSMTAADTAVYYCARDYRVAGTYYYYYGLDVWGQGTTVTVSS VL: QSALTQPASVSGSPGQSITISCTGTSSDVGVYDYVSWYQQHPGKAPKLMIYEVSNRPSGVSNRFSGSKSGNTASLTISGLQTEDEADYYCSSYTSRSTWVFGGGTKLTVLG										Inhibition of IL-8 release in a dual cell assay (B16-huCD30L cells + K299 cells) IC50 [17]: 1.61 nM; Inhibition of IL-8 release in a dual cell assay (HEK293-cyCD30L cells + K299 cells) IC50 [18]: 0.79 nM; EC50 [19]: 1.12 nM; EC50 [20]: 0.56 nM; IC50 [21]: 1.84 nM; IC50 [22]: 0.73 nM
